Literature values as cited in publication PMC4346141.

Experiments:
[1] = target: IL12Rβ1 clone 3 (Mus musculus) (UniProt Q60837)
[2] = target: IL12Rβ1 clone 2 (Mus musculus) (UniProt Q60837)
[3] = target: IL12Rβ1 monomer (Homo sapiens) (UniProt P42701)
[4] = target: IL12Rβ2 (Homo sapiens) (UniProt Q99665)
[5] = target: IL12Rβ1 (Homo sapiens) (UniProt P42701)

Chain of IL12 (P29459 23-219): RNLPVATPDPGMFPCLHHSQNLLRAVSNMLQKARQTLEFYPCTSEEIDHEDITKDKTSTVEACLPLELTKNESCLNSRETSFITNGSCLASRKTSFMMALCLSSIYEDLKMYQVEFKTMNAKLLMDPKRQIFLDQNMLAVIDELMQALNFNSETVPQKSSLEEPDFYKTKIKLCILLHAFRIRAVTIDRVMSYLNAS
Chain of IL12 (P29460 23-328, further chain): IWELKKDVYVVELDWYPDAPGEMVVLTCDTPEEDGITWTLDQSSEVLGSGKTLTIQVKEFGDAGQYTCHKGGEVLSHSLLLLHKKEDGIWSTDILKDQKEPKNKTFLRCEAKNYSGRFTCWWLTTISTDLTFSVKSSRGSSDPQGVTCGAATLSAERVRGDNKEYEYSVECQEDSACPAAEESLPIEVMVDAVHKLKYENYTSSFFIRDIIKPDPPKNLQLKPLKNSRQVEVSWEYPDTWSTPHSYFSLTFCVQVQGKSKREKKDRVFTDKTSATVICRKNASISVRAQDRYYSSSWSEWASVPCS
Chain of IL12Rβ1 clone 2 (Mus musculus) (Q60837 20-565): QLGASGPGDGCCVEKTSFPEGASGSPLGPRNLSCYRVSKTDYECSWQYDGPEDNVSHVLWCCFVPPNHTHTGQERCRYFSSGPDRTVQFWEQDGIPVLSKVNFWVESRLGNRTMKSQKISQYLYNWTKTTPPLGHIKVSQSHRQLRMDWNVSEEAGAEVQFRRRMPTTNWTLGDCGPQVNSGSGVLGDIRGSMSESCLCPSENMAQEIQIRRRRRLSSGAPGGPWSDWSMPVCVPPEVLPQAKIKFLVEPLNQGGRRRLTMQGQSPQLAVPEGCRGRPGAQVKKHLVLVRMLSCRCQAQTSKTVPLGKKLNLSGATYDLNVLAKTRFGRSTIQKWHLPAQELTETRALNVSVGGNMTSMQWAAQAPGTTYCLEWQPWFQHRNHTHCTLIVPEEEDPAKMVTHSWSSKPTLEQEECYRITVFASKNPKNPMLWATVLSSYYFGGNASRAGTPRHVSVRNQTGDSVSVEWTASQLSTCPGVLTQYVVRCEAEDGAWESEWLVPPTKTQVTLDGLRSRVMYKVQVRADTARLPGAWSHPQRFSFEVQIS
Chain of IL12Rβ1 clone 3 (Mus musculus) (Q60837 20-565): as above
Chain of IL12Rβ2 (Homo sapiens) (Q99665 24-622): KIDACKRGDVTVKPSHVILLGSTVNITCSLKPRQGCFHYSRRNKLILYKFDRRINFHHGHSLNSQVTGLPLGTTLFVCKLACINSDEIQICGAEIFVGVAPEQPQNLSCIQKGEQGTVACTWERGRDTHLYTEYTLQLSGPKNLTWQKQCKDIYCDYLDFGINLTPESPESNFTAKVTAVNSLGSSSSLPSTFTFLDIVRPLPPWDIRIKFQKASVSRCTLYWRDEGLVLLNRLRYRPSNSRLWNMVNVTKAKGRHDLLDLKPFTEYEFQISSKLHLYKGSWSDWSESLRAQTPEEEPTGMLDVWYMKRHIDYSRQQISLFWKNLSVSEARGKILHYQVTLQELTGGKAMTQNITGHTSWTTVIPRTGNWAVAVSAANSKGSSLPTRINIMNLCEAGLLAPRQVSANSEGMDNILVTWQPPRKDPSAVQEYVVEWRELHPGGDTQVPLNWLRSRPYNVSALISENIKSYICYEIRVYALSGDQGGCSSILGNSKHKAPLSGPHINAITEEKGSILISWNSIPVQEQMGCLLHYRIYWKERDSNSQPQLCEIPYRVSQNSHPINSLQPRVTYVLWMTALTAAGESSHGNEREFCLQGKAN

Kd [1] [nM] | Kd [2] [nM] | Kd [3] [nM] | Kd [4] [nM] | Kd [5] [nM] | Substance
1.3 | 0.899 | – | – | – | IL12 (from UniProt P43431)
– | – | > 50 | 5 | 3 | IL12 (from UniProt P29459)
